The labels stand for the following.
B1: LINE1-full (parent)
chain: UACGUAGGUGGUUUUCCCCUGAUAGUGCUAAGGGGGCCUGGAAGUUUGGACUGGGCAGAGCUCAACACAGCGUGGCAAAGUGGCUGUGGCUAGACUGCCUCUCUGGAUUCCUCGUCACUCAGCAGGGCAUCUCUGAGAGAAAUGCC

The record followed here is the RNAGym collection of RNA variant scans (doi:10.7554/elife.90254).

This series covers variants of B1. The series is described as follows: self-cleavage, relative activity (ratio to wild type); higher = more cleavage; in vitro, sequencing; the parent is a self-cleaving ribozyme.
For UACGUAGGUGGUUUUCCCCUGAUUGUGCUAAGGGGGCCUGGAAGUUUGGACUGGGCAGAGCUCUACACAGCGUGGCAAAGUGGCUGUGGCUAGACUGCCUCUCUGGAUUCCUCGUCACUCAGCAGGGCAUCUCUGAGAGAAAUGCC, the self-cleavage amounted to 0.35.

For the variant UACGUAGGUGGUUUUCCCCUGAUUGUGCUAAGGGGGCCUGGAAGUUUGGACUGGGCAGAGCUCGACACAGCGUGGCAAAGUGGCUGUGGCUAGACUGCCUCUCUGGAUUCCUCGUCACUCAGCAGGGCAUCUCUGAGAGAAAUGCC, the self-cleavage was 0.23.

For the variant UACGUAGGUGGUUUUCCCCUGAUUGUGCUAAGGGGGCCUGGAAGUUUGGACUGGGCAGGGCUCAACACAGCGUGGCAAAGUGGCUGUGGCUAGACUGCCUCUCUGGAUUCCUCGUCACUCAGCAGGGCAUCUCUGAGAGAAAUGCC, the self-cleavage stood at 0.06.

For the variant UACGUAGGUGGUUUUCCCCUGAUUGUGCUAAGGGGGCCUGGAAGUUUGGACUGGGCAGAGCUCAACACAGCGUGGCAAAGUGGCUGUGGCUAGACUGCCUCUCUGGAUUCCUCGUCACUCAGCAGGGCAUCUCUGAGAGGAAUGCC, the self-cleavage amounted to 1.75.

For UACGUAGGUGGUUUUCCCCUGAUUGUGCUAAGGGAGCCUGGAAGUUUGGACUGGGCAGAGCUCAACACAGCGUGGCAAAGUGGCUGUGGCUAGACUGCCUCUCUGGAUUCCUCGUCACUCAGCAGGGCAUCUCUGAGAGAAAUGCC, the self-cleavage came out at 0.8.

As for UACGUAGGUGGUUUUCCCCUGAUUGUGCUAAGGGUGCCUGGAAGUUUGGACUGGGCAGAGCUCAACACAGCGUGGCAAAGUGGCUGUGGCUAGACUGCCUCUCUGGAUUCCUCGUCACUCAGCAGGGCAUCUCUGAGAGAAAUGCC, the self-cleavage was found to be 0.67.

For UACGUAGGUGGUUUUCCCCUGAUUGUGCUAAGGGGGCCUGGAAGUUUGGACUGGGCAGAGCUCAACACAGCGUGGCAAAGUGGCUUUGGCUAGACUGCCUCUCUGGAUUCCUCGUCACUCAGCAGGGCAUCUCUGAGAGAAAUGCC, the self-cleavage is 0.13.

UACGUAGGUGGUUUUCCCCUGAUUGUGCUGAGGGGGCCUGGAAGUUUGGACUGGGCAGAGCUCAACACAGCGUGGCAAAGUGGCUGUGGCUAGACUGCCUCUCUGGAUUCCUCGUCACUCAGCAGGGCAUCUCUGAGAGAAAUGCC: the self-cleavage stood at 1.09.

In the case of UACGUAGGUGGUUUUCCCCUGAUUGUGCUAAGGGGGCCUGGAAGUUUGGACUGGGCAGAGCUCAACACAGCGUGGCAAAGUGGCUGUGGCUAGACUGCCUCUCUGGAUUCCUCGUCACUUAGCAGGGCAUCUCUGAGAGAAAUGCC, the self-cleavage is 0.79.

With UACGUAGGUGGUUUUCCCCUGAUUGUGCUAAGGGGGCCUGGAAGUUUGGACUGGGCAGAGCUCAACACAGCGUGGCAAAGUGGCUGUGGCUAGACUGCCUCUCUGGAUUCCUCGUCACUCUGCAGGGCAUCUCUGAGAGAAAUGCC, the self-cleavage is 0.55.

UACGUAGGUGGUUUUCCCCUGAUUGUGCUAAGGGGGCCUGGAAGUUUGGACUGGGCAGAGCUCAACACAGCGUGGCAAAGUGGCUGUGGCUAGACUGCCUCUCUGGGUUCCUCGUCACUCAGCAGGGCAUCUCUGAGAGAAAUGCC: the self-cleavage was found to be 2.24.

As for UACGUAGGUGGUUUUCCCCUGAUUGUGCUAAGGGGGCCUGGAAGUUUGGACUGGGCAGAGCUCAACACAGCGUGGCAAAGUGGCUGUGGCUAGACUGCCUCUCUGGUUUCCUCGUCACUCAGCAGGGCAUCUCUGAGAGAAAUGCC, the self-cleavage is 1.64.

For UACGUAGGUGGUUUUCCCCUGAUUGUGCUAAGGGGGCCUGGAAGUUUGGAUUGGGCAGAGCUCAACACAGCGUGGCAAAGUGGCUGUGGCUAGACUGCCUCUCUGGAUUCCUCGUCACUCAGCAGGGCAUCUCUGAGAGAAAUGCC, the self-cleavage came out at 0.84.

For the variant UACGUAGGUGGUUUUCCCCUGAUUGUGCUAAGGGGGCCUGGAAGUUUGGACUGGGCAGAGCUCAACACAGCGUGGCAAAGUGGCUGUGGCUAGACUGCCUCUCUGGAUUCCUCGUAACUCAGCAGGGCAUCUCUGAGAGAAAUGCC, the self-cleavage was found to be 1.7.

For the variant UACGUAGGUGGUUUUCCCCUGAUUGUGCUAAGGGGGCCUGGAAGUUUGAACUGGGCAGAGCUCAACACAGCGUGGCAAAGUGGCUGUGGCUAGACUGCCUCUCUGGAUUCCUCGUCACUCAGCAGGGCAUCUCUGAGAGAAAUGCC, the self-cleavage came to 1.39.

With UACGUAGGUGGUUUUCCCCUGAUUGUGCUAAGGGGGCCUGGAAGUUUGGACUGGGCAGAGCUCAACACAGCGUGGCAAAGUGGCUGUGGCUAGACUGCCUCUCUGGAUUCCUCGUCACUCAGUAGGGCAUCUCUGAGAGAAAUGCC, the self-cleavage was determined as 1.02.

With UACGUAGGUGGUUUUCCCCUGAUUGUGCUAAGGGGGCCUGGAAGUUUGGACUGGGCAGAGCUCAACACUGCGUGGCAAAGUGGCUGUGGCUAGACUGCCUCUCUGGAUUCCUCGUCACUCAGCAGGGCAUCUCUGAGAGAAAUGCC, the self-cleavage is 0.09.

For the variant UACGUAGGUGGUUUUCCCCUGAUUGUGCUAAGGGGGCCUGGAAGUUUGGACUGGGCAGAGCUCAACACGGCGUGGCAAAGUGGCUGUGGCUAGACUGCCUCUCUGGAUUCCUCGUCACUCAGCAGGGCAUCUCUGAGAGAAAUGCC, the self-cleavage was found to be 0.53.

For the variant UACGUAGGUGGUUUUCCCCUGAUUGUGCUAAGGGGGCCUGGAAGUUUGGACUGGGCAGAGCUCAACACAGCGUGGCGAAGUGGCUGUGGCUAGACUGCCUCUCUGGAUUCCUCGUCACUCAGCAGGGCAUCUCUGAGAGAAAUGCC, the self-cleavage was found to be 2.22.

For the variant UACGUAGGUGGUUUUCCCCUGAUUGUGCUAAGGGGGCCUGGAAGUUUGGACUGGGCAGAGCUCAACACAGCGUGGCUAAGUGGCUGUGGCUAGACUGCCUCUCUGGAUUCCUCGUCACUCAGCAGGGCAUCUCUGAGAGAAAUGCC, the self-cleavage is 0.93.

UACGUAGGUGGUUUUCCCCUGAUGGUGCUAAGGGGGCCUGGAAGUUUGGACUGGGCAGAGCUCAACACAGCGUGGCAAAGUGGCUGUGGCUAGACUGCCUCUCUGGAUUCCUCGCCACUCAGCAGGGCAUCUCUGAGAGAAAUGCC: the self-cleavage turned out to be 1.46.

As to UACGUAGGUGGUUUUCCCCUGAUUGUGCUAAGGGGGCCUGGAAGUUUGGACUGGGCAGAGCUCAACACAGCGUGGCAAAGUGGCUGUGGCUAGACUGCCUCUCUGGAUUCCUCGUCGCUCAGCAGGGCAUCUCUGAGAGAAAUGCC, the self-cleavage came to 0.54.

As for UACGUAGGUGGUUUUCCCCUGAUGGUGCUAAGGGGGCCUGGAAGUUUGGACUGGGCAGAGCUCAACACAGCGUGGCAAAGUGGCUGUGGCUAGACUGCCUCUCUGGAUUCCUCGUCACUCAGCAGGGCAUCUCUGAGAGAAACGCC, the self-cleavage worked out at 1.12.

For UACGUAGGUGGUUUUCCCCUGAUGGUGCUAAGGGGGCCUGGAAGUUUGGACUGGGCAGAGCUCAACACAGCGUGGCAAAGUGGCUGUGGCUAGACUGCCUCUCUGGAUUCCUCGUCACUCAGCAGGGCACCUCUGAGAGAAAUGCC, the self-cleavage was 1.47.

In the case of UACGUAGGUGGUUUUCCCCUGAUUGUGCUAAGGGGGCCUGGAAGUUUGGACUGGGCAGAGCUCAACACAGCGUGGCAAAGUGGCUGUGGCUGGACUGCCUCUCUGGAUUCCUCGUCACUCAGCAGGGCAUCUCUGAGAGAAAUGCC, the self-cleavage worked out at 0.08.

Turning to UACGUAGGUGGUUUUCCCCUGAUUGUGCUAUGGGGGCCUGGAAGUUUGGACUGGGCAGAGCUCAACACAGCGUGGCAAAGUGGCUGUGGCUAGACUGCCUCUCUGGAUUCCUCGUCACUCAGCAGGGCAUCUCUGAGAGAAAUGCC, the self-cleavage is 1.09.

For UACGUAGGUGGUUUUCCCCUGAUGGUGCUAAGGGGGCCUGGAAGUUUGGACUGGGCAGAGCUCAACACAGCGUGGCAAAGUGGCUGUGGCUAGACUGCCUCUCUGGAUUCCUCGUCACCCAGCAGGGCAUCUCUGAGAGAAAUGCC, the self-cleavage is 0.83.

In the case of UACGUAGGUGGUUUUCCCCUGAUUGUGCUAAGGGGGCCUGGAAGUUUGGACUGGGCAGAGCUCAACACAGCGUGGCAAAGUGGCUGUGGCUAGACUGCCUCUCUGGAUUCCUCGUCACUCAGCAGGGCAUCUCUGAGAGAAAUGCC, the self-cleavage stood at 1.25.

With UACGUAGGUGGUUUUCCCCUGAUUGUGCUAAGGGGGCCUGGAAGUUUGGACUGGGCAGAGCUCAACACAGCGUGGCAAAGUGGCUGUGGCUAGACUGCCUCUCUGGAUUCCUCGUCACUCAGCAGGGCAUCUCUGAGUGAAAUGCC, the self-cleavage was 1.93.

Consider UACGUAGGUGGUUUUCCCCUGAUUGUGCUAAGGGGGCCUGGAAGUUUGGACUGGGCAGAGCUCAACUCAGCGUGGCAAAGUGGCUGUGGCUAGACUGCCUCUCUGGAUUCCUCGUCACUCAGCAGGGCAUCUCUGAGAGAAAUGCC, for which the self-cleavage turned out to be 0.1.

Consider UACGUAGGUGGUUUUCCCCUGAUUGUGCUAAGGGGGCCUGGAAGUUUGGACUGGGCAGAGCUCAACACAGCGUGGCAAAGUGGCUGUGGCUAGACUGCCUCUCUGGAUUCCUCGUCACUCAGCAGGGCAUCUCUGGGAGAAAUGCC, for which the self-cleavage was determined as 1.64.

On to UACGUAGGUGGUUUUCCCCUGAUUGUGCUAAGGGGGCCUGGAAGUUUGGACUGGGCAGAGCUCAACACAGCGUGGCAAAGUGGCUGUGGCUAGACUGCCUCUCUGGAUUCCUCGUCACUCAGCGGGGCAUCUCUGAGAGAAAUGCC, for which the self-cleavage came to 1.06.

Turning to UACGUAGGUGGUUUUCCCCUGAUUGUGCUAAGGGGGCCUGGAAGUUUGGACUGGGCAGAGCUCAACACAGCGUGGCAAACUGGCUGUGGCUAGACUGCCUCUCUGGAUUCCUCGUCACUCAGCAGGGCAUCUCUGAGAGAAAUGCC, the self-cleavage stood at 1.41.

UACGUAGGUGGUUUUCCCCUGAUUGUGCUAAGGGGGCCUGGAAGUUUGGACUGGGCCGAGCUCAACACAGCGUGGCAAAGUGGCUGUGGCUAGACUGCCUCUCUGGAUUCCUCGUCACUCAGCAGGGCAUCUCUGAGAGAAAUGCC: the self-cleavage was determined as 0.

Take UACGUAGGUGGUUUUCCCCUGAUUGUGCUAAGGGGGCCUGGAAGUUUGGACUGGGCUGAGCUCAACACAGCGUGGCAAAGUGGCUGUGGCUAGACUGCCUCUCUGGAUUCCUCGUCACUCAGCAGGGCAUCUCUGAGAGAAAUGCC: the self-cleavage stood at 0.16.

Turning to UACGUAGGUGGUUUUCCCCUGAUUGUGCUAAGGGGGGCUGGAAGUUUGGACUGGGCAGAGCUCAACACAGCGUGGCAAAGUGGCUGUGGCUAGACUGCCUCUCUGGAUUCCUCGUCACUCAGCAGGGCAUCUCUGAGAGAAAUGCC, the self-cleavage was determined as 0.82.

With UACGUAGGUGGUUUUCCCCUGAUUGUGCUAAGGGGGCCUGGGAGUUUGGACUGGGCAGAGCUCAACACAGCGUGGCAAAGUGGCUGUGGCUAGACUGCCUCUCUGGAUUCCUCGUCACUCAGCAGGGCAUCUCUGAGAGAAAUGCC, the self-cleavage came to 1.54.

In the case of UACGUAGGUGGUUUUCCCCUGAUUGUGCUAAGGGGGCCUGGAAGUUUGGACUGGGCAGAGCUCAACACAGCGUGGCAAAGUGGCUGUGGCUAGACUGCCUCUCUGGAUUCCUCGUCACUCAGCAGGGCGUCUCUGAGAGAAAUGCC, the self-cleavage was determined as 0.75.

Regarding UACGUAGGUGGUUUUCCCCUGAUUGUGCUAAGGGGGCCUGGAAGUUUGGACUGGGCAGAGCUCAACACAGCGUGGCAGAGUGGCUGUGGCUAGACUGCCUCUCUGGAUUCCUCGUCACUCAGCAGGGCAUCUCUGAGAGAAAUGCC, the self-cleavage stood at 1.31.
